This is an account of results in article PMC9361535.

Common to all, as to experiment: GFP-Trap pulldown, quantitative mass spectrometry (iBAQ)
One experiment addresses MSRB3. The following applies: cytoplasmic fraction of HeLa cells; read off a plot.
A further experiment has as its target HSPA6/7. The settings on record: cytoplasmic fraction of HeLa cells; read off a plot.
Another experiment has as its target ASH2L (UniProt Q9UBL3). The following applies: nuclear extracts of HeLa cells; read off a plot.
The target in another experiment is DPY30 (UniProt Q9C005). The settings on record: nuclear extracts of HeLa cells; read off a plot.
The target in another experiment is HCFC2 (UniProt Q9Y5Z7). The following applies: nuclear extracts of HeLa cells; read off a plot.
The target of the next experiment is HSPA8 (UniProt P11142). The following applies: cytoplasmic fraction of HeLa cells; read off a plot.
For the next experiment, the target named is JunD (UniProt P17535). The following applies: nuclear extracts of HeLa cells, read off a plot.
Another experiment deals with KMT2A (UniProt Q03164). The settings on record: nuclear extracts of HeLa cells, read off a plot.
The next experiment deals with KMT2B (UniProt Q9UMN6). The settings on record: nuclear extracts of HeLa cells; read off a plot.
The next experiment addresses PHLDA2. The following applies: cytoplasmic fraction of HeLa cells; read off a plot.
The next experiment addresses PSIP1 (UniProt O75475). The following applies: nuclear extracts of HeLa cells; read off a plot.
Another experiment has as its target RBBP5 (UniProt Q15291). The following applies: nuclear extracts of HeLa cells; read off a plot.
Another experiment addresses WDR5 (UniProt P61964). The following applies: nuclear extracts of HeLa cells; read off a plot.
The target in another experiment is ubiquitin (UniProt P62979). The following applies: cytoplasmic fraction of HeLa cells; read off a plot.
Another experiment deals with CBS. The settings on record: cytoplasmic fraction of HeLa cells; read off a plot.
A further experiment has as its target DNAJA1. The settings on record: cytoplasmic fraction of HeLa cells; read off a plot.
The target in the next experiment is SPRYD3. The settings on record: cytoplasmic fraction of HeLa cells; read off a plot.

JunD, sequence (P17535 whole entry): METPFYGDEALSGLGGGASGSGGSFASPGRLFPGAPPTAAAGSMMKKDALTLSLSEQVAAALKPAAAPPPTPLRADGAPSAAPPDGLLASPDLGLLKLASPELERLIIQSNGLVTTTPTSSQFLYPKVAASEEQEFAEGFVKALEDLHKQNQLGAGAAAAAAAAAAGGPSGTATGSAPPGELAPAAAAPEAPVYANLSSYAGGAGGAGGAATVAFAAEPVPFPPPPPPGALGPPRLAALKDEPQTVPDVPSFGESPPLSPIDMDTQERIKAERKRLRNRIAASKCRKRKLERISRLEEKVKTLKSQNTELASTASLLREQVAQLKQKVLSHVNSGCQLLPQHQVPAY
KMT2A, sequence (Q03164 whole entry): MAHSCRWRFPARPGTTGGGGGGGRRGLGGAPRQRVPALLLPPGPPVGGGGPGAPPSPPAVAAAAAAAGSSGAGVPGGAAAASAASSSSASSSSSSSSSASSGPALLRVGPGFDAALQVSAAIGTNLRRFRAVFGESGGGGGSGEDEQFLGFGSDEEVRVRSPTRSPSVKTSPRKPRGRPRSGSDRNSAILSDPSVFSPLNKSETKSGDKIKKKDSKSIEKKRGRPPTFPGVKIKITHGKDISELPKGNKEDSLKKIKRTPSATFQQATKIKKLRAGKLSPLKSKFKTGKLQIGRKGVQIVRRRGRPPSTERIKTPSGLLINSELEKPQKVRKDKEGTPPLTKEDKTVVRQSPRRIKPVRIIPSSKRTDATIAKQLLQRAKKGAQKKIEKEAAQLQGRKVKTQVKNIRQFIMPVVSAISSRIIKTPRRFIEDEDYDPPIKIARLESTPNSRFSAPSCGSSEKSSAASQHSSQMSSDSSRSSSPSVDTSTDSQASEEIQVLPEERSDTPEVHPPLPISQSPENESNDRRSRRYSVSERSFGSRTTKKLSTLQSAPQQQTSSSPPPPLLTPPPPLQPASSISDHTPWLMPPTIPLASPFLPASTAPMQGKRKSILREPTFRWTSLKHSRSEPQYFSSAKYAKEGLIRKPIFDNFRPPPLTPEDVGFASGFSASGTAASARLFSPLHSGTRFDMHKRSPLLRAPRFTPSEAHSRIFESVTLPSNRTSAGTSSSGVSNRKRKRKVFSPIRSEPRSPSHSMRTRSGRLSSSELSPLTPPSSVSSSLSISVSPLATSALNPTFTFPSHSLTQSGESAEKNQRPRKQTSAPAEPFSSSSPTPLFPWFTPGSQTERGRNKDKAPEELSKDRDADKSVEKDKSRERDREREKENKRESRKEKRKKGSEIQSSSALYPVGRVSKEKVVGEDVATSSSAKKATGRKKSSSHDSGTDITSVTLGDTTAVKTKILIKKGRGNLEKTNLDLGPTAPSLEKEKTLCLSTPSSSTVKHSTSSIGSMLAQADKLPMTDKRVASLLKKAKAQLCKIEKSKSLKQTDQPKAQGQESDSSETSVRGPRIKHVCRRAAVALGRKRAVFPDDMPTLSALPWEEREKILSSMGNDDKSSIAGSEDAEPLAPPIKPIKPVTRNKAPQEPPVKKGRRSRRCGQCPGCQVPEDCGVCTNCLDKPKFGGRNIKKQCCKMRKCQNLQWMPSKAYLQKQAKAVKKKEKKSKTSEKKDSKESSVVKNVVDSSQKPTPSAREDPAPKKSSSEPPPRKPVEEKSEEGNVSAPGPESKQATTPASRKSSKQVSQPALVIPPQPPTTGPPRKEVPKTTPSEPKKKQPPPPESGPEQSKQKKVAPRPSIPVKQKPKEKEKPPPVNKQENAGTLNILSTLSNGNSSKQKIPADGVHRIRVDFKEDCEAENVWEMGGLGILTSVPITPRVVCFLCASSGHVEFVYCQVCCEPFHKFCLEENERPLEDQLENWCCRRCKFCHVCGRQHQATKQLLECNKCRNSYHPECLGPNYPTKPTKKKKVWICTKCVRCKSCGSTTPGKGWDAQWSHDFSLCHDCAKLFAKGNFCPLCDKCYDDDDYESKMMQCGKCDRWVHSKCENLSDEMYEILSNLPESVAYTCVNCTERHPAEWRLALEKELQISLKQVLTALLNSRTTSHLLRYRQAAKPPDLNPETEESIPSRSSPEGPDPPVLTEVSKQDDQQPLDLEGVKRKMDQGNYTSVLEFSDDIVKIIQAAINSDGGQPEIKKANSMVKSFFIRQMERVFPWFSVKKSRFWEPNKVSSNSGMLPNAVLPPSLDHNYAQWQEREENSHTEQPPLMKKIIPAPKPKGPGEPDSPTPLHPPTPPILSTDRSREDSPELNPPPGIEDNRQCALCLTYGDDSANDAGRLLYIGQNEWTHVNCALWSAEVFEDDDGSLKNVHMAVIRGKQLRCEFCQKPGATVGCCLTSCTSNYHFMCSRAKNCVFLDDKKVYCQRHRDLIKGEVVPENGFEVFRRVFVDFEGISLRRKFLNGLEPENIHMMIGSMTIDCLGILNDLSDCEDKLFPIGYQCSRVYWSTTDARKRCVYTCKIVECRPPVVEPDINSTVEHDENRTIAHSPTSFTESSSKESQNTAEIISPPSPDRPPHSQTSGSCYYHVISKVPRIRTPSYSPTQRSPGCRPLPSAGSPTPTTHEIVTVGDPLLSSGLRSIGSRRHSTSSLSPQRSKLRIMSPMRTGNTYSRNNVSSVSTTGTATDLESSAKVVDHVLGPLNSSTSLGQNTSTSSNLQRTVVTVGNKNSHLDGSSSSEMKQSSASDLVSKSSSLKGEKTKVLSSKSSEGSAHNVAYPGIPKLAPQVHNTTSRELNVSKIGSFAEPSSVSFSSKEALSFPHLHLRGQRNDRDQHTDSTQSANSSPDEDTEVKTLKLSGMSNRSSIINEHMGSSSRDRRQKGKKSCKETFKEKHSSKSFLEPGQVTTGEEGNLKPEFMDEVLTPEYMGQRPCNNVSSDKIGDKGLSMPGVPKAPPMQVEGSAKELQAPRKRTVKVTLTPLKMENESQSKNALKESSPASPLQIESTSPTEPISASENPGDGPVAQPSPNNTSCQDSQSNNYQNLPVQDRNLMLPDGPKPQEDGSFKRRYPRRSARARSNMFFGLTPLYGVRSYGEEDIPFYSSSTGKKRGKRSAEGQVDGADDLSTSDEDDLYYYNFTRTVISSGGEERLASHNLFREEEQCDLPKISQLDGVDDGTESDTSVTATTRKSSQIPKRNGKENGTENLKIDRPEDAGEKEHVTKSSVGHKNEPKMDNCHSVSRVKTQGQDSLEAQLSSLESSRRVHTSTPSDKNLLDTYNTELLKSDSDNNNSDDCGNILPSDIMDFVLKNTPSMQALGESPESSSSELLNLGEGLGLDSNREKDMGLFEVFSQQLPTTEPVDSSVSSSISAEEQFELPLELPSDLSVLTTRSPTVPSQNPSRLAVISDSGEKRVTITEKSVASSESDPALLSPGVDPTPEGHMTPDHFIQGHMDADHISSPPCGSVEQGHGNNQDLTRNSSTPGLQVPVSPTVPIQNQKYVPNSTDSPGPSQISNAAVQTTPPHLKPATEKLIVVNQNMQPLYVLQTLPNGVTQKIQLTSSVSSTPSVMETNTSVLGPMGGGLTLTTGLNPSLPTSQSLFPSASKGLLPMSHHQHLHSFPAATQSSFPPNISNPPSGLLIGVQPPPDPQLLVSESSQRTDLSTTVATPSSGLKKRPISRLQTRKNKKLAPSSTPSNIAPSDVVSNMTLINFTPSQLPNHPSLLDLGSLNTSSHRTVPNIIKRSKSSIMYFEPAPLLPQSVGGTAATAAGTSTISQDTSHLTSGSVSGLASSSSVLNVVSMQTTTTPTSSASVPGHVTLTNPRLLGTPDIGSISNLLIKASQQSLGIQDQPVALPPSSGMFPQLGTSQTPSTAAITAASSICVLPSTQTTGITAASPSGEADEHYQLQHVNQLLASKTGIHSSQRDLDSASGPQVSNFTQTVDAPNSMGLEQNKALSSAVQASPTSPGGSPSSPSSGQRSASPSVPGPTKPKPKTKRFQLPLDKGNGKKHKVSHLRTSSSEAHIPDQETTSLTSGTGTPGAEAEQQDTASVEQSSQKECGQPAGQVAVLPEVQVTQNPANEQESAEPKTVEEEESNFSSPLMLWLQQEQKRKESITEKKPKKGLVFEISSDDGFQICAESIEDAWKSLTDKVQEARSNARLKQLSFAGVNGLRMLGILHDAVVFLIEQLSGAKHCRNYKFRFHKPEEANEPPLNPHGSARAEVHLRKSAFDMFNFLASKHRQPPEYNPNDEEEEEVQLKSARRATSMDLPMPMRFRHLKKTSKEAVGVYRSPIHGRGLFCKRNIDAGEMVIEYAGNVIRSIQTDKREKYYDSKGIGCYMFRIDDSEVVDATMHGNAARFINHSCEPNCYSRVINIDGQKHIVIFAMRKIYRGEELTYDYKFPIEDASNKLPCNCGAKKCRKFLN
RBBP5, sequence (Q15291 whole entry): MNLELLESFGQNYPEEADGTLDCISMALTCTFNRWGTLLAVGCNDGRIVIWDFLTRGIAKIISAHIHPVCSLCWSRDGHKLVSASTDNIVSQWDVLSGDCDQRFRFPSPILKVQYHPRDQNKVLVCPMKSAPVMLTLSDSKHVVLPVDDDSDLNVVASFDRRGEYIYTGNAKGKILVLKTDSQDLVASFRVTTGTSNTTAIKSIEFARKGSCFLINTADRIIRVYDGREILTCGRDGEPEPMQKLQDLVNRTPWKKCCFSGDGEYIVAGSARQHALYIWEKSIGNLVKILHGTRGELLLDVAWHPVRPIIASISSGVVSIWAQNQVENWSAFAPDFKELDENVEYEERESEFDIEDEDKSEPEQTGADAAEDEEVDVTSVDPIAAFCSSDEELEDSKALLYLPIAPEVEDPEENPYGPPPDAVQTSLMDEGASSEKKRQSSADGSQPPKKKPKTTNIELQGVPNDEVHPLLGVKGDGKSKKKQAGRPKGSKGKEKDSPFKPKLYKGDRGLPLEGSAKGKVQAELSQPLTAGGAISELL
DPY30, sequence (Q9C005 whole entry): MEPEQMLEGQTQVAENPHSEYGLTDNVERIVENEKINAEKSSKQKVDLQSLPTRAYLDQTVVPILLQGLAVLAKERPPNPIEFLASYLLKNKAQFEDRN

“WT menin-GFP (from UniProt O00255-2) E359K”: the other: stoichiometry in the experiment with MSRB3 was 0.22.

On to “WT menin-GFP (from UniProt O00255-2) Q141R”, for which the other: stoichiometry with HSPA6/7 turned out to be 0.04; with MSRB3 it was 0.055.

As for “WT menin-GFP (from UniProt O00255-2) R322H”, the other: stoichiometry with ASH2L came out at 0.06; in the experiment with DPY30, 0.23; with HCFC2, 0.014; with HSPA8, 0.26; in the experiment with JunD, 0.053; with KMT2A it was 0.028. Moreover, the other: stoichiometry with KMT2B was found to be 0.068; with MSRB3, 0.045; with PHLDA2, 0.045; with PSIP1, 0.014; with RBBP5, 0.076; with WDR5, 0.046. Further, the other: stoichiometry in the experiment with ubiquitin is 0.35. Also, the figures for the ratio to parent with JunD (parent: est. 1.0) and in the experiment with KMT2A (parent: est. 1.0) were 0.53 and 0.8, respectively.

As for “WT menin-GFP (from UniProt O00255-2) E408Q”, the figures for the other: stoichiometry in the experiment with CBS, in the experiment with MSRB3 and with PHLDA2 were 0.055, 0.095 and 0.12, respectively.

In the experiment with HSPA6/7, “WT menin-GFP (from UniProt O00255-2) L264P” gave an other: stoichiometry of 0.11.

With “WT menin-GFP (from UniProt O00255-2) E366D”, the other: stoichiometry was determined as 0.055 with MSRB3 and 0.06 in the experiment with PHLDA2.

In the case of “WT menin-GFP (from UniProt O00255-2) L168P”, the other: stoichiometry was found to be 0.045 with DNAJA1, 0.075 with HSPA6/7 and 0.04 with SPRYD3.

As to “WT menin-GFP (from UniProt O00255-2) R52G”, the results for the other: stoichiometry with MSRB3 and in the experiment with PHLDA2 were 0.05 and 0.09, respectively.
